Results published in patent publication US20200347133A1 (INHIBRX, published 2020).

Key:
[1] = molecular target: T1, CD33M, full length human CD33 protein expressed on transfected cells (human, UniProt P20138 18-303); test: flow cytometry on cells transfected with CD33M; apparent Kd, one-site fit
T1 construct: also called full length CD33
Method: (§1) Binding of sdAbs to human CD33 was assessed by flow cytometry. […] MOLM-13 cells were transiently transfected with a plasmid encoding a sequence comprising “CD33M” (SEQ ID NO: 112) or a plasmid encoding a sequence comprising a truncated version, “CD33m” (SEQ ID NO: 113). The sequence encoded by the CD33M plasmid includes the leader sequence, full extracellular domain, transmembrane domain, and cytoplasmic domain. The sequence encoded by the CD33m plasmid includes the leader sequence, the membrane proximal IgC2 domain, and the transmembrane domain. Untransfected HEK 293 cells were used as CD33-negative cells. Each cell type was plated at 30,000 cells/well in FACS buffer (PBS 1% BSA, 0.1% NaN₃ pH 7.4) on a 96-well round-bottom plate. The sdAbs were diluted in FACS buffer in a 3-fold, 11 point serial dilution. The sdAb dilutions were added to the plated cells, and assay plates were incubated for 30 minutes at 4° C. After washing twice in 150 μL of FACS buffer, cells in each well were resuspended in 100 μL of 1:2000 Alexa Fluor 647-conjugated Anti-Human IgG secondary diluted in FACS buffer and incubated at 4° C. for 30 minutes. The cells were washed twice more, then bound antibody was detected by flow cytometry.
(§2) Flow cytometric analysis was performed on an Intellicyte iQue Plus and fluorescence was plotted as median fluorescence intensity. The apparent affinity (Kd, nM) was determined using one site binding non-linear regression in PRISM graph software.

[2] = molecular target: T1, CD33M, full length human CD33 protein …; test: flow cytometry on cells labelled CD33M-HEK-293, anti-human IgG Alexa Fluor 647 secondary, median fluorescence
Method: Binding of sdAbs to human CD33 was assessed by flow cytometry. […] […] The sequence encoded by the CD33M plasmid includes the leader sequence, full extracellular domain, transmembrane domain, and cytoplasmic domain. The sequence encoded by the CD33m plasmid includes the leader sequence, the membrane proximal IgC2 domain, and the transmembrane domain. Untransfected HEK 293 cells were used as CD33-negative cells. Each cell type was plated at 30,000 cells/well in FACS buffer (PBS 1% BSA, 0.1% NaN₃ pH 7.4) on a 96-well round-bottom plate. The sdAbs were diluted in FACS buffer in a 3-fold, 11 point serial dilution. The sdAb dilutions were added to the plated cells, and assay plates were incubated for 30 minutes at 4° C. After washing twice in 150 μL of FACS buffer, cells in each well were resuspended in 100 μL of 1:2000 Alexa Fluor 647-conjugated Anti-Human IgG secondary diluted in FACS buffer and incubated at 4° C. for 30 minutes. The cells were washed twice more, then bound antibody was detected by flow cytometry.
as §2

[3] = molecular target: T1, CD33M, full length human CD33 protein …; test: flow cytometry on MOLM-13 cells transfected with CD33 (CD33M per Table 3), anti-human IgG Alexa Fluor 647 secondary, median fluorescence
Method: as §1, §2

[4] = molecular target: T2, CD33m, truncated human CD33 protein expressed on transfected cells (human, UniProt P20138 140-259); test: flow cytometry on cells transfected with truncated CD33m; apparent Kd, one-site fit; CD33m isoform, not CD33M
T2 construct: leader and transmembrane domain are not in it; also called truncated CD33
T2 sequence (P20138 140-259 limits assumed): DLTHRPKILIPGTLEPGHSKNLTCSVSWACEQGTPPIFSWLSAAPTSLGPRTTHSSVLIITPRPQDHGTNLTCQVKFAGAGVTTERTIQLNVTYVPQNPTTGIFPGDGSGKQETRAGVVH
Method: (§3) Binding of sdAbs to human CD33 was assessed by flow cytometry. […] MOLM-13 cells were transiently transfected with a plasmid encoding a sequence comprising “CD33M” (SEQ ID NO: 112) or a plasmid encoding a sequence comprising a truncated version, “CD33m” (SEQ ID NO: 113). The sequence encoded by the CD33M plasmid includes the leader sequence, full extracellular domain, transmembrane domain, and cytoplasmic domain. The sequence encoded by the CD33m plasmid includes the leader sequence, the membrane proximal IgC2 domain, and the transmembrane domain. Untransfected HEK 293 cells were used as CD33-negative cells. Each cell type was plated at 30,000 cells/well in FACS buffer (PBS 1% BSA, 0.1% NaN₃ pH 7.4) on a 96-well round-bottom plate. The sdAbs were diluted in FACS buffer in a 3-fold, 11 point serial dilution. The sdAb dilutions were added to the plated cells, and assay plates were incubated for 30 minutes at 4° C. […] The cells were washed twice more, then bound antibody was detected by flow cytometry.
as §2

[5] = molecular target: T2, CD33m, truncated human CD33 protein …; test: flow cytometry on cells transfected with truncated CD33m; apparent Kd, one-site fit
Method: as §1, §2

[6] = molecular target: T2, CD33m, truncated human CD33 protein …; test: flow cytometry on cells labelled CD33m-HEK-293, anti-human IgG Alexa Fluor 647 secondary, median fluorescence
Method: as §3, §2

[7] = molecular target: T1, CD33M, full length human CD33 protein …; test: flow cytometry on Molm-13 cells transfected with CD33 (CD33M per Table 3), anti-human IgG Alexa Fluor 647 secondary, median fluorescence
Method: as §3, §2

[8] = molecular target: T1, CD33M, full length human CD33 protein …; test: flow cytometry on Molm-13 cells transfected with CD33 (CD33M per Table 3), fluorescent anti-human IgG secondary, axis Median BL-1H

T1 sequence (P20138 18-303): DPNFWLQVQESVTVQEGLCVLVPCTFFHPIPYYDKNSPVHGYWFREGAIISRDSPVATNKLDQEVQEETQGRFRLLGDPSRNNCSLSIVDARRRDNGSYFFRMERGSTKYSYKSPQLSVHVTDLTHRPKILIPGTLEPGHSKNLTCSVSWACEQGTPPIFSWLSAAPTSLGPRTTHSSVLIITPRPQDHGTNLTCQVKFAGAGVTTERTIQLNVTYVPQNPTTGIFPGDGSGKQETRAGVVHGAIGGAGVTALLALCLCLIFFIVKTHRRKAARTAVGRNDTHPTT

| Kd [1] [nM] | EC50 (read off the curve) [2] [nM] | Kd [5] [nM] | Binder | also measured |
| --- | --- | --- | --- | --- |
| 0.75 | ~0.7 |  | hzB07v7 sdAb (hzB07v7 VHH domain fused to human IgG1 xELL Fc region) (Fc fusion, VHH-Fc; no linker stated; also called hzB07v7-IgG1) EVQLVESGGGEVQPGGSLRLSCAASGRTISDYVVGWFRQAPGKERAFVAAISRYGTTYYAASVQGRFTISRDNPRNTVYLQVDSLRAEDTAVYYCAALQNDVRNNHSPTSYDYWGQGTLVTVDKTHTCPPCPAPGGPSVFLFPPKPKDTLMISRTPEVTCVVVDVSHEDPEVKFNWYVDGVEVHNAKTKPREEQYNSTYRVVSVLTVLHQDWLNGKEYKCKVSNKALPAPIEKTISKAKGQPREPQVYTLPPSRDELTKNQVSLTCLVKGFYPSDIAVEWESNGQPENNYKTTPPVLDSDGSFFLYSKLTVDKSRWQQGNVFSCSVMHEALHNHYTQKSLSLSPGK |  |
| 56.6 |  | 11.8 | hzA07v4 sdAb (hzA07v4 VHH domain fused to human IgG1 xELL Fc region) (Fc fusion, VHH-Fc; no linker stated; also called hzA07v4-IgG1) EVQLVESGGGEVQPGGSLRLSCAASRSSGIDVMGWYRQAPGKERELVAEISGVGDTNYAASLADRFTVSRDNAKNTVYLQMSSLRAEDTAVYYCNAHSFLDLVGAWGQGTLVTVDKTHTCPPCPAPGGPSVFLFPPKPKDTLMISRTPEVTCVVVDVSHEDPEVKFNWYVDGVEVHNAKTKPREEQYNSTYRVVSVLTVLHQDWLNGKEYKCKVSNKALPAPIEKTISKAKGQPREPQVYTLPPSRDELTKNQVSLTCLVKGFYPSDIAVEWESNGQPENNYKTTPPVLDSDGSFFLYSKLTVDKSRWQQGNVFSCSVMHEALHNHYTQKSLSLSPGK | EC50 (read off the curve) [6]: ~9 nM |
| 0.27 |  |  | hz1H9v2 sdAb (hz1H9v2 VHH domain fused to human IgG1 xELL Fc region) (Fc fusion, VHH-Fc; no linker stated; also called hz1H9v2-IgG1) EVQLVESGGGEVQPGGSLRLSCAASGSIFSISIMGWYRQAPGKERELVASTTSSGTTNYVESVKGRFTISRDNAKNTLYLQMSSLRAEDTAVYYCHAYIATTTDRGYRGYWGQGTLVTVDKTHTCPPCPAPGGPSVFLFPPKPKDTLMISRTPEVTCVVVDVSHEDPEVKFNWYVDGVEVHNAKTKPREEQYNSTYRVVSVLTVLHQDWLNGKEYKCKVSNKALPAPIEKTISKAKGQPREPQVYTLPPSRDELTKNQVSLTCLVKGFYPSDIAVEWESNGQPENNYKTTPPVLDSDGSFFLYSKLTVDKSRWQQGNVFSCSVMHEALHNHYTQKSLSLSPGK | EC50 (read off the curve) [3]: ~0.3 nM |
| 14.8 | 10 to 100 | 9.13 | hzF02v18 sdAb (hzF02v18 VHH domain fused to human IgG1 xELL Fc region) (Fc fusion, VHH-Fc; no linker stated; also called hzF02v18-IgG1) EVQLVESGGGEVQPGGSLRLSCAASGSISSYNVMGWYRQAPGKQRELVAQINAYGDTNYANAVVGRFTISRDNAKNTVYLQMSSLRAEDTAVYYCNGQRMLENYTYRDQSWGQGTLVTVDKTHTCPPCPAPGGPSVFLFPPKPKDTLMISRTPEVTCVVVDVSHEDPEVKFNWYVDGVEVHNAKTKPREEQYNSTYRVVSVLTVLHQDWLNGKEYKCKVSNKALPAPIEKTISKAKGQPREPQVYTLPPSRDELTKNQVSLTCLVKGFYPSDIAVEWESNGQPENNYKTTPPVLDSDGSFFLYSKLTVDKSRWQQGNVFSCSVMHEALHNHYTQKSLSLSPGK | EC50 (read off the curve) [6]: ~8 nM |
| 2.67 | ~2 |  | hzG11v2 sdAb (hzG11v2 VHH domain fused to human IgG1 xELL Fc region) (Fc fusion, VHH-Fc; no linker stated; also called hzG11v2-IgG1) EVQLVESGGGEVQPGGSLRLSCAASGSTLNIDHIGWYRQAPGKERELVGVISSGAGPNYAESVKGRFTISRDNAKNTVYLQMSSLRAEDTAVYYCNAWIDYGSGLPQNYWGQGTLVTVDKTHTCPPCPAPGGPSVFLFPPKPKDTLMISRTPEVTCVVVDVSHEDPEVKFNWYVDGVEVHNAKTKPREEQYNSTYRVVSVLTVLHQDWLNGKEYKCKVSNKALPAPIEKTISKAKGQPREPQVYTLPPSRDELTKNQVSLTCLVKGFYPSDIAVEWESNGQPENNYKTTPPVLDSDGSFFLYSKLTVDKSRWQQGNVFSCSVMHEALHNHYTQKSLSLSPGK |  |

The next lines start with the binder.

| Binder | Kd [1] [nM] | EC50 (read off the curve) [2] [nM] | Kd [5] [nM] | also measured |
| --- | --- | --- | --- | --- |
| 1H9 sdAb (1H9 VHH domain fused to human IgG1 xELL Fc region) (Fc fusion, VHH-Fc; no linker stated; also called 1H9-IgG1) EVQLQQSGGAVVQPGGSLRLSCAASGSIFSISIMGWYRQAPGKERELVASTTSSGTTNYVDSVKGRFTASRDNAKNTVYLQMNSLKPDDTAIYHCHAYIATTTDRGYRGYWGQGTQVTVDKTHTCPPCPAPGGPSVFLFPPKPKDTLMISRTPEVTCVVVDVSHEDPEVKFNWYVDGVEVHNAKTKPREEQYNSTYRVVSVLTVLHQDWLNGKEYKCKVSNKALPAPIEKTISKAKGQPREPQVYTLPPSRDELTKNQVSLTCLVKGFYPSDIAVEWESNGQPENNYKTTPPVLDSDGSFFLYSKLTVDKSRWQQGNVFSCSVMHEALHNHYTQKSLSLSPGK | 0.14 |  |  | EC50 (read off the curve) [3]: ~0.2 nM |
| A07 sdAb (A07 VHH domain fused to human IgG1 xELL Fc region) (Fc fusion, VHH-Fc; no linker stated) QVQLVQSGGGLVQAGGSLTLSCAASRSSGIDVMGWYRQAPGKERELVAEISGVGDTNYAASLADRFTVSRDNAKNTVYLQMKNLKPEDTAVYYCNAHSFLDLVGAWGQGTQVTVDKTHTCPPCPAPGGPSVFLFPPKPKDTLMISRTPEVTCVVVDVSHEDPEVKFNWYVDGVEVHNAKTKPREEQYNSTYRVVSVLTVLHQDWLNGKEYKCKVSNKALPAPIEKTISKAKGQPREPQVYTLPPSRDELTKNQVSLTCLVKGFYPSDIAVEWESNGQPENNYKTTPPVLDSDGSFFLYSKLTVDKSRWQQGNVFSCSVMHEALHNHYTQKSLSLSPGK | 53.5 |  |  | Kd [4]: 19.9 nM |
| hz1C7v1 sdAb (hz1C7v1 VHH domain fused to human IgG1 xELL Fc region) (Fc fusion, VHH-Fc; no linker stated; also called hz1C7v1-IgG1) EVQLVESGGGEVQPGGSLRLSCAASGRTFSGYIMGWFRQAPGKERELVARISGNNLSTEYAESVKGRFTISRDNAKNTLYLQMSSLRAEDTAVYYCAAEYDYSSGDFVYWGQGTLVTVDKTHTCPPCPAPGGPSVFLFPPKPKDTLMISRTPEVTCVVVDVSHEDPEVKFNWYVDGVEVHNAKTKPREEQYNSTYRVVSVLTVLHQDWLNGKEYKCKVSNKALPAPIEKTISKAKGQPREPQVYTLPPSRDELTKNQVSLTCLVKGFYPSDIAVEWESNGQPENNYKTTPPVLDSDGSFFLYSKLTVDKSRWQQGNVFSCSVMHEALHNHYTQKSLSLSPGK | 6.25 |  |  | EC50 (read off the curve) [7]: ~6 nM |
| hz1C7v11 sdAb (hz1C7v11 VHH domain fused to human IgG1 xELL Fc region) (Fc fusion, VHH-Fc; no linker stated; also called hz1C7v11-IgG1) EVQLVESGGGEVQPGGSLRLSCAASGRTFSGYIMGWFRQAPGKERELVARISGNNLATEYAESVKGRFTISRDNAKNTLYLQMSSLRAEDTAVYYCAAEYDYSSGDFVYWGQGTLVTVDKTHTCPPCPAPGGPSVFLFPPKPKDTLMISRTPEVTCVVVDVSHEDPEVKFNWYVDGVEVHNAKTKPREEQYNSTYRVVSVLTVLHQDWLNGKEYKCKVSNKALPAPIEKTISKAKGQPREPQVYTLPPSRDELTKNQVSLTCLVKGFYPSDIAVEWESNGQPENNYKTTPPVLDSDGSFFLYSKLTVDKSRWQQGNVFSCSVMHEALHNHYTQKSLSLSPGK | 5.45 |  |  | EC50 (read off the curve) [8]: ~5 nM |
| F02 sdAb (F02 VHH domain fused to human IgG1 xELL Fc region) (Fc fusion, VHH-Fc; no linker stated; also called F02-IgG1) QVQLVQSGGGLVQAGGSLRLSCAASGSISSYNVVGWYRQLSGNERGGRTMVAQINAYGDTNYANAVVGRFTISRDDAKNTVYLHMSNLKPEDTGVYYCNGQRMLENYTYRDQSWGQGTQVTVDKTHTCPPCPAPGGPSVFLFPPKPKDTLMISRTPEVTCVVVDVSHEDPEVKFNWYVDGVEVHNAKTKPREEQYNSTYRVVSVLTVLHQDWLNGKEYKCKVSNKALPAPIEKTISKAKGQPREPQVYTLPPSRDELTKNQVSLTCLVKGFYPSDIAVEWESNGQPENNYKTTPPVLDSDGSFFLYSKLTVDKSRWQQGNVFSCSVMHEALHNHYTQKSLSLSPGK | 15.2 |  | 5.15 |  |
